# Source: article doi:10.1101/2020.03.25.005199
# Molecular target: Orai1-GFP (UniProt Q96D31)
# Test: FRET or BRET
# UniProt Q96D31, sequence (Q96D31 whole entry): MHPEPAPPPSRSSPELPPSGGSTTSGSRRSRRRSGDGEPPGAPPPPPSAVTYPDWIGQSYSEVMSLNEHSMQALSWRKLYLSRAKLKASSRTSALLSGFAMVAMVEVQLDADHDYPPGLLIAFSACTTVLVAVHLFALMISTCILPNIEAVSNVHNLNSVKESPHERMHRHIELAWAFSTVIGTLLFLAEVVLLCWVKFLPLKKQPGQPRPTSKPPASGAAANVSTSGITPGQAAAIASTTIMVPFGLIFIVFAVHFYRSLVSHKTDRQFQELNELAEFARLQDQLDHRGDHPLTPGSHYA
substance,measurement,value
STIM1A-mCherry (from UniProt Q13586) (natural protein),E-FRET,0.26
